Assay results from patent publication US20200385463A1 (LANOVA MEDICINES, published 2020).

Target: Human claudin 18.2 (CLDN18.2), wild-type (human)
Assay: cell-based or functional assay

| Binder | EC50 (pM), ADCC Reporter Bioassay (luciferase; Jurkat effector cells with FcγRIIIa V158 and NFAT response element) [pM] |
| --- | --- |
| 4F11E2 chimeric antibody (antibody, V domains shown) VH: DVQLVESGGGLVQPGGSRKLSCAASGFTFSTFGMHWVRQAPEKGLEWVAYITSGNSPIYFTDTVKGRFTISRDNPKNTLFLQMTSLGSEDTAVYYCARSSYYGNSMDYWGQGTSVTVSS VL: DIVMTQSPSSLTVTAGEKVTLTCRSSQSLLNSGNRKNYLTWYQQIPGQPPKLLIYWASTRESGVPDRFTGSGSGTYFTLTISSVQAEDLAVYYCQNAYSYPFTFGSGTKLEKK | 22.2 |
| 12F1F4 chimeric antibody (antibody, V domains shown) VH: QVQLKESGPGLVAPSQSLSITCTVSGFSLINYGVSWVRQPPGKGLEWLGVIWGDGNTNYQSALRSRLSIRKDTSKSQVFLKLNSVHTDGTATYYCAKVGRGNAMDHWGQGISVIVSS VL: DIVMTQSPSSLTVTARERVSMTCKSSQSLFNSGNQRNYLTWYQQKPGQPPKLLIYWSSTRESGVPDRFTGSGSGTDFTLTISSVQAEDLAIYFCQNNYYYPFTFGSGTKLEIK | 36.8 |
| 64G11B4 chimeric antibody (antibody, V domains shown) VH: QVQLHQSGTELVRPGTSVKVSCKASGYAFTNYLLEWVKQRPGQGLEWIGEINPGNGGSNYNEKFKGKATLTADKSSSTAYMQLSSLTSVDSAVYFCARIYYGNSFAYWGQGTLVTVSA VL: DIVMTQSPSSLTVTAGEKVTMNCKSSQSLLNSGNQRNYLTWYQQKPGQPPKLLIYWASTRESGVPDRFTGSGSGTDFTLTISSVQADDLAVYYCQNDYFYPFTFGAGTNLELK | 126 |
| 72C1B6A3 chimeric antibody (antibody, V domains shown) VH: QVQLQQSGGELVKPGASVKMSCKAFGYTFTTYPIEWMKQNHGKSLEWIGNFHPYNDDTKYNEKFKGKAKLTVEKSSSTVYLEVSRLTSDDSAVYYCARRAYGYPYAMDYWGQGTSVTVSS VL: DIVMTQSPSSLTVTAGEKVTMSCKSSQSLLNSGNQKNYLTWYQQRPGQPPKLLIYRASSRESGVPVRFTGSGSGTDFTLTISSVQAEDLAVYYCQNDYIYPYTFGGGTKLEMN | 46.3 |

Second part, the binder after the results:

| EC50 (pM), ADCC Reporter Bioassay (luciferase; Jurkat effector cells with FcγRIIIa V158 and NFAT response element) [pM] | Binder |
| --- | --- |
| 15.9 | 78E8G9G6 chimeric antibody (antibody, V domains shown) VH: QVQLKESGPGLVAPSQSLSITCTVSGFSLISYGVHWVRQPPGKGLEWLGVIWAGGRTNYNSALMSRLSISKDNSKSQVFLKMNSLQTYDTAMYYCARDRYGGNSLDYWGQGTSVTVSS VL: DIVMTQSPSSLTVTAGEKVTMNCRSIQSLLNSGNQKNYLSWYQQKPGQPPKLLIYWASTRESGVPDRFTGSGSGTDFTLTIRSVLDEDLAVYYCQNSYSYPFTFGSGTKLEMK |
| 79.5 | 103F6D3 chimeric antibody (antibody, V domains shown) VH: QVQLQQSGAELARPGASVKMSCKASGYTFPTYSIHWLKQGPGQGLEWIGYINPNTIYTNYNQKFKYKTTLTADKSSSTAYIQLSSLTSDDSAVYYCAREGYGRGNAMDYWGQGTSVTVSS VL: DIVMTQSPSSQTVTAGEKVTLSCRSSQSLLNGGNQKNYLTWYQQKPGQPPKLLIYWASTRESGVPDRFTGSGSGTYFTFTISSVQAEDLAVYYCQNAYFYPFTFGAGTKLELK |
| 5.81 | 120B7B2 chimeric antibody (antibody, V domains shown) VH: EVQLQQSGPELVKPGASVKMSCKASGYTFTGYIIQWMKQKPGLGLEWIGFINPYNDGTKYNEQFKGKATLTSDKSSNAAYMELSSLTSEDSAVYYCARAYFGNSFAYWGQGTLVTVSA VL: DIVMTQSPSSLTVTAGEKVTMSCKSSQSLLNSGNQKNYLTWYQQRPGQPPKLLMYWASTRESGVPDRFTGSGSGTDFTLTISSGQAEDLAIYFCQNGYYFPFTFGSGTKLETK |

Target: Human claudin 18.2 (CLDN18.2), wild-type (human)
Assay: cell-based or functional assay
Remark: another data set of the same source

| Binder | EC50 (pM), ADCC Reporter Bioassay (luciferase, Jurkat effector cells) [pM] |
| --- | --- |
| 4F11E2 -HC N55Q-LC S32A (antibody, V domains shown) VH: EVQLVESGGGLVQPGGSLRLSCAASGFTFSTFGMHWVRQAPGKGLEWVSYITSGQSPIYFTDTVKGRFTISRDNAKNSLYLQMNSLRAEDTAVYYCARSSYYGNSMDYWGQGTLVTVSS VL: DIVMTQSPDSLAVSLGERATINCRSSQSLLNAGNRKNYLTWYQQKPGQPPKLLIYWASTRESGVPDRFSGSGSGTDFTLTISSLQAEDVAVYYCQNAYSYPFTFGGGTKLEIK | 414 |
| 4F11E2 (HC N55E/LC S32A) (antibody, V domains shown) VH: EVQLVESGGGLVQPGGSLRLSCAASGFTFSTFGMHWVRQAPGKGLEWVSYITSGESPIYFTDTVKGRFTISRDNAKNSLYLQMNSLRAEDTAVYYCARSSYYGNSMDYWGQGTLVTVSS VL: DIVMTQSPDSLAVSLGERATINCRSSQSLLNAGNRKNYLTWYQQKPGQPPKLLIYWASTRESGVPDRFSGSGSGTDFTLTISSLQAEDVAVYYCQNAYSYPFTFGGGTKLEIK | 148 |
| 72C1B6A3 (HC WT/LC S32A) (antibody, V domains shown) VH: QVQLVQSGAEVKKPGASVKVSCKASGYTFTTYPIEWVRQAPGQRLEWMGNFHPYNDDTKYNEKFKGRVTITRDTSASTAYMELSSLRSEDTAVYYCARRAYGYPYAMDYWGQGTLVTVSS VL: DIVMTQSPDSLAVSLGERATINCKSSQSLLNAGNQKNYLTWYQQKPGQPPKLLIYRASSRESGVPDRFSGSGSGTDFTLTISSLQAEDVAVYYCQNDYIYPYTFGGGTKLEIK | 190 |
| 4F11E2 -HC N55Q-LC N31E (antibody, V domains shown) VH: EVQLVESGGGLVQPGGSLRLSCAASGFTFSTFGMHWVRQAPGKGLEWVSYITSGQSPIYFTDTVKGRFTISRDNAKNSLYLQMNSLRAEDTAVYYCARSSYYGNSMDYWGQGTLVTVSS VL: DIVMTQSPDSLAVSLGERATINCRSSQSLLESGNRKNYLTWYQQKPGQPPKLLIYWASTRESGVPDRFSGSGSGTDFTLTISSLQAEDVAVYYCQNAYSYPFTFGGGTKLEIK | 238 |

More lines, now with the values ahead:

| EC50 (pM), ADCC Reporter Bioassay (luciferase, Jurkat effector cells) [pM] | Binder |
| --- | --- |
| 1650 | 72C1B6A3-HC WT-LC N31E (antibody, V domains shown) VH: QVQLVQSGAEVKKPGASVKVSCKASGYTFTTYPIEWVRQAPGQRLEWMGNFHPYNDDTKYNEKFKGRVTITRDTSASTAYMELSSLRSEDTAVYYCARRAYGYPYAMDYWGQGTLVTVSS VL: DIVMTQSPDSLAVSLGERATINCKSSQSLLESGNQKNYLTWYQQKPGQPPKLLIYRASSRESGVPDRFSGSGSGTDFTLTISSLQAEDVAVYYCQNDYIYPYTFGGGTKLEIK |
| 493 | 120B7B2-HC G57D&S104A-LC-N96E&N31E (antibody, V domains shown) VH: QVQLVQSGAEVKKPGASVKVSCKASGYTFTGYIIQWVRQAPGQRLEWMGFINPYNDDTKYNEQFKGRVTITRDTSASTAYMELSSLRSEDTAVYYCARAYFGNAFAYWGQGTLVTVSS VL: DIVMTQSPDSLAVSLGERATINCKSSQSLLESGNQKNYLTWYQQKPGQPPKLLIYWASTRESGVPDRFSGSGSGTDFTLTISSLQAEDVAVYYCQEGYYFPFTFGGGTKLEIK |
| 114 | 120B7B2 (HC G57D S104A/LC S32A G97A) (antibody, V domains shown) VH: QVQLVQSGAEVKKPGASVKVSCKASGYTFTGYIIQWVRQAPGQRLEWMGFINPYNDDTKYNEQFKGRVTITRDTSASTAYMELSSLRSEDTAVYYCARAYFGNAFAYWGQGTLVTVSS VL: DIVMTQSPDSLAVSLGERATINCKSSQSLLNAGNQKNYLTWYQQKPGQPPKLLIYWASTRESGVPDRFSGSGSGTDFTLTISSLQAEDVAVYYCQNAYYFPFTFGGGTKLEIK |
